This is an account of results in patent US20080166375A1.

The experiment deals with urokinase-type plasminogen activator receptor (human) (UniProt Q03405). The experiment can be described thus: cell-based or functional assay.
Sequence of urokinase-type plasminogen activator receptor (human) (Q03405 23-305): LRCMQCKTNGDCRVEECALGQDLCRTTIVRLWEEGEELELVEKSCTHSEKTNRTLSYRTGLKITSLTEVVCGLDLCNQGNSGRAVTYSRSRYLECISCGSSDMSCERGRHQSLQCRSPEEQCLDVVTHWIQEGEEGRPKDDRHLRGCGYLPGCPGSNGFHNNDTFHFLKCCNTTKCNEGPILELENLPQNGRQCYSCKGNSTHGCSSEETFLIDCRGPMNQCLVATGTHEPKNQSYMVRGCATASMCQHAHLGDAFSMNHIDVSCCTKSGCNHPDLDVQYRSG

“DTAT (from UniProt P00588 33-422; P00749 21-155)”: the IC50, 3H-thymidine incorporation inhibition, HUV-EC, DTAT came to 0.0268 nM.
